In patent publication US11618913B2, “Method for preparing xyloglucan-oligosaccharides” (TECHNISCHE UNIVERSITÄT MÜNCHEN, priority 2017, dated 2023):
Entries after “also recorded” stand apart in the source; their conditions may differ.

Legend:
Assay type in all cases: biochemical
[1] = Specific enzyme activity, reducing sugars by DNSA assay; conditions: dockerin domain deleted
Procedure: Enzyme activity: the release of micromol reducing sugars from arabinoxylan per mg of enzyme was determined with the DNSA assay.
Specific enzyme activity was determined by using a model substrate such as barley-beta-glucan (Megazyme). Endoglucanase activity is defined as the generation of reducing sugars from the model substrate. One unit of enzyme activity is defined as the amount of reducing sugars in micromol generated per mg of enzyme in one minute at 60° C. To define the enzyme profile and temperature and pH optimum the endoglucanases (50 ng/reaction) were incubated for 30 minutes at a temperature range from 50 to 80° C. in presence of 1% (wt/vol) barley-beta-glucan solved in citrate buffer with varying pH (range 4.0-8.0) (solution A: 0.2 M citric acid, 0.1 M NaCl; solution B: 0.4 M Na2HPO4, 0.1 M NaCl). Reducing sugars were measured by 3,5-dinitrosalicylic acid (DNSA) method: 50 microL sample were mixed with 75 microL DNSA-solution (10 g/L DNSA, 200 g/L K^+-Na^+-Tartrate, 10 g/L NaOH, 0.5 g/L Na2SO4, 2 g/L Phenol) in microtiter plates, incubated for 5 minutes at 95° C., cooled on ice and the absorption determined at 540 nm. For calibration, glucose solutions between 0 and 2 mg/mL were used.

[2] = Hydrolysis of 20% (wt/vol) TKP/dTKP, XGOS release by HPAEC-PAD; conditions: 20% (wt/vol) dTKP/TKP, 60° C.
Procedure: For XGOS release 20% (wt/vol) 8 g of TKP or dTKP was dissolved in 40 ml demineralized water at 60° C. The enzyme was added at the desired concentrations, 3%, 0.65%, 0.05%, 0.03% or 0.006% (wt/wt TKP) referred to the substrate load. Incubation of the reaction mixture was carried out on a rotary shaker at 125 rpm and 60° C. The hydrolysis process was monitored by taking samples at different time points. The samples were centrifuged and the supernatant boiled for 5 min at 95° C. to denature residual proteins. For analysis, samples of the supernatant were withdrawn, tenfold diluted with double deionized water and measured by HPAEC-PAD.
For the analysis by HPAEC-PAD an ICS 3000 Dionex chromatography system from Thermo Fisher Scientific (Waltham, USA) equipped with a CarboPac™ PA1 column (4×250 mm) and a PA1-precolumn (4×50 mm) was used. The system was set up using PEEK tubing (0.25 mm i.d.), a GM-4 gradient mixer (2 mm), an ED amperometry cell with 0.25 microL channel volume, a pH-Ag/AgCl reference electrode, 0.002″ gasket and disposable gold electrodes. Runs were performed at a column temperature of 30° C. with an injection volume of 25 microL and a flow rate of 1 mL/min. […]
Quantification was performed using a XGOS standard mixture from Megazyme with 0.4 g/L, 0.2 g/L, 0.1 g/L, and 0.05 g/L.

[3] = Ki determination (end product inhibition) on Azo-Xyloglucan in presence of xyloglucan oligosaccharides; conditions: inhibition by xyloglucan oligosaccharides; non-competitive inhibition model; substrate 1-20 g/l
Procedure: To evaluate the suitability of SEQ ID NOs 1-4 for TKP hydrolysis, the Ki value of SEQ ID NO 3 was determined. Enzymatic activity was measured on Azo-Xyloglucan (Megazyme) according to the manufacturer's instruction. Substrate concentrations of 1-20 g/I were chosen and enzymatic activity was measured in the presence of increasing concentrations of xyloglucan oligosaccharides. Mode of Inhibition was assessed using a Lineweaver-Burke plot.

B1: SEQ ID NO 4: endoglucanase obtained from SEQ ID NO: 2 by deleting the dockerin domain (protein)
chain: STAYTGMRDITSLELVNEMRIGWNLGNTLDAIGGETNWGNPKTTKEMIDKVKEMGFNTVRFPVTWGGHVGPAPDYKIDEGWLNRVEEVVNYALSNDMYAIINLHHENSWLVPTYAQEKRSTEQLVKIWEQVATRFKDYGDYLIFETMNEPRVENSPYEWSGGTPENRHVINNFNLAAVNTIRSTGGNNAKRHIMIPAHAASAIDIALNDLVIPNNDDRIIISVHNYSPYFFAMDVNGTASWGSDYDKASLAAELEALYNRFIKNGRAVVIGEFGSINKNNLSDRIRHAEFFAKEARKRGITVIWWDNGYNEGGKAESYALLDRRNLTWYHPEIAEALVRGAGGVPEPTPTPTPEPTPSPG
[1]; SEQ ID NO 2 activity set to 100%
  enzyme activity increase in comparison to wildtype SEQ ID NO 2: 7 fold

B2: SEQ ID NO 2: wildtype glycoside hydrolase family 5 endoglucanase from Herbivorax saccincola DSM101079 (protein, listed as Herbivorax saccincola)
chain: STAYTGMRDITSLELVNEMRIGWNLGNTLDAIGGETNWGNPKTTKEMIDKVKEMGFNTVRFPVTWGGHVGPAPDYKIDEGWLNRVEEVVNYALSNDMYAIINLHHENSWLVPTYAQEKRSTEQLVKIWEQVATRFKDYGDYLIFETMNEPRVENSPYEWSGGTPENRHVINNFNLAAVNTIRSTGGNNAKRHIMIPAHAASAIDIALNDLVIPNNDDRIIISVHNYSPYFFAMDVNGTASWGSDYDKASLAAELEALYNRFIKNGRAVVIGEFGSINKNNLSDRIRHAEFFAKEARKRGITVIWWDNGYNEGGKAESYALLDRRNLTWYHPEIAEALVRGAGGVPEPTPTPTPEPTPSPGEDILYGDLNGDGIINSIDYNLLNRYILEVIDDLPVENYSKVADLNGDGVINSNDAVLLGRFILEIVDKFPVDK
[2]; 0.03% (wt/wt) enzyme
  hydrolysis of TKP to DP7-DP9 after 24 h: Complete hydrolysis; also recorded: completely

B3: SEQ ID NO 3: endoglucanase obtained from SEQ ID NO: 1 by deleting the dockerin domain (protein)
chain: AKITENYQFDSRIRLNSIGFIPNHSKKATIAANCSTFYVVKEDGTIVYTGTATSMFDNDTKETVYIADFSSVNEEGTYYLAVPGVGKSVNFKIAMNVYEDAFKTAMLGMYLLRCGTSVSATYNGIHYSHGPCHTNDAYLDYINGQHTKKDSTKGWHDAGDYNKYVVNAGITVGSMFLAWEHFKDQLEPVALEIPEKNNSIPDFLDELKYEIDWILTMQYPDGSGRVAHKVSTRNFGGFIMPENEHDERFFVPWSSAATADFVAMTAMAARIFRPYDPQYAEKCINAAKVSYEFLKNNPANVFANQSGFSTGEYATVSDADDRLWAAAEMWETLGDEEYLRDFENRAAQFSKKIEADFDWDNVANLGMFTYLLSERPGKNPALVQSIKDSLLSTADSIVRTSQNHGYGRTLGTTYYWGCNGTVVRQTMILQVANKISPNNDYVNAALDAISHVFGRNYYNRSYVTGLGINPPMNPHDRRSGADGIWEPWPGYLVGGGWPGPKDWVDIQDSYQTNEIAINWNAALIYALAGFVNYN
modifications: Recombinat polypeptide
[1]; SEQ ID NO 1 activity set to 100%
  enzyme activity increase in comparison to SEQ ID NO 1: 4 fold
[3]
  Ki: 16.8 mM
[2]; 0.006% (wt/wt) enzyme
  degree of hydrolysis after 24 h: over 80%
